Read-outs that look alike come from different tables or passages of the source.

For experiment [1], the target named is T1, human properdin (human, UniProt P27918 28-469).
T1 construct: properdin of normal human serum in the hemolysis assays; Properdin forms cyclic dimers, trimers and tetramers; also called biotinylated human properdin; h-IP
In words: sensorgram kinetics (RU), biotinylated properdin capture method.

In experiment [2] the target is T1, human properdin. The experiment can be described thus: cell-based or functional assay.
The target in experiment [3] is T1, human properdin. In words: cell-based or functional assay. The source holds these as a separate data set.
Experiment [4] concerns the target T1, human properdin. The experiment can be described thus: binding kinetics, biotinylated properdin capture method.
For experiment [5], the target named is T2, cynomolgus properdin (cynomolgus, UniProt A0A2K5V0Z6 29-470).
T2 construct: properdin of cynomolgus serum in the hemolysis assays; also called biotinylated cynomolgus properdin
The experiment is described as above.

The target in experiment [6] is T1, human properdin. In words: cell-based or functional assay. This is another data set of the same source.
Experiment [7] addresses T1, human properdin. In words: binding kinetics at pH 7.4.
Experiment [8] concerns the target T2, cynomolgus properdin. The experiment can be described thus: binding kinetics at pH 7.4.
In experiment [9] the target is T1, human properdin. In words: binding kinetics, biotinylated properdin capture method. The source holds these as a separate data set.
Experiment [10] deals with T1, human properdin. The experiment can be described thus: Octet bio-layer interferometry; streptavidin biosensors loaded with biotinylated human properdin, construct at 10 ug/mL. The protocol: All washes, dilutions, and measurements were performed in Kinetic buffer (FortéBio cat 185032) with the plate shaking at 1000 rpm. Streptavidin Biosensors (Forté Bio Cat:18-5019 lot: 1405301) were equilibrated in Kinetic buffer for 10 min and then loaded with 50 nm of biotinylated human properdin. For the association phase, 10 μg/mL of selected anti-properdin antibody or kinetics buffer blank was added to the biosensors preloaded with biotinylated human properdin, respectively.

The target of experiment [11] is T3, Human Albumin (human, UniProt P02768 25-609). In words: binding kinetics at pH 7.4.
Experiment [12] has as its target T4, Cynomolgus Albumin (cynomolgus, UniProt A2V9Z4 25-608). The experiment can be described thus: binding kinetics at pH 7.4.
Experiment [13] addresses T3, Human Albumin. The experiment can be described thus: binding kinetics at pH 6.0.
Experiment [14] deals with T4, Cynomolgus Albumin. The experiment can be described thus: binding kinetics at pH 6.0.
Experiment [15] has as its target T1, human properdin. The experiment can be described thus: binding kinetics at pH 6.0.

B1: AB008 (VHH)
VHH: QVQLVESGGGLRQTGESLRLSCTASGRIFEVNMMAWYRQAPGKQRELVAEISRVGTTTYADSVKGRFTISRDSAKNTVTLQMNSLKSEDTAVYYCNALQYDRYGGAEYWGQGTQVTVSG
notes: Llama VHH, cloned and expressed with a 6x histidine tag; also called anti-properdin VHH AB008
In the experiment with human properdin [1], B1 returned a Kd of 0.803 nM, an off-rate (koff) of 0.00169 s⁻¹ and a kon of 2.11e+06 M⁻¹ s⁻¹.

B2: AB006 (VHH)
VHH: QVQLAESGGGLVQAGDSLKLSCTASGRIFEVNMMAWYRQAPGKDRELVAEISRVGTTTYADSVKGRFTISRDSAKNTVTLQMNSLKSEDTAVYYCNALQYSRYGGAEYWGQGTQVTVSG
Regarding B2, the “IC50 (read off the curve)” value in the experiment with human properdin [2] is approximately 30 nM.

B3: AB005 (VHH)
VHH: QVQVVESGGGLRQTGGSLRLSCTASGRIFEVNMMAWYRQAPGKQRELVAEISRVGTTVYADSVKGRFTISRDSAKNTVTLQMNSLKSEDTAVYYCNALQYDRYGGAEYWGQGTQVTVSS
Regarding B3, in the experiment with human properdin [2], the “IC50 (read off the curve)” value is approximately 20 nM.

B4: TPP-2223 (Anti-properdin control antibody without C1q binding domain) (antibody, human IgG1, kappa, V domains shown)
VH: QVQLVQSGAEVKKPGASVKVSCKASGYIFTNYPIHWVRQAPGQGLEWMGFIDPGGGYDEPDERFRDRVTMTRDTSTSTVYMELSSLRSEDTAVYYCARRGGGYYLDYWGQGTLVTVSS
VL: DIQMTQSPSSLSASVGDRVTITCRASQDISFFLNWYQQKPGKAPKLLIYYTSRYHSGVPSRFSGSGSGTDFTLTISSLQPEDFATYYCQHGNTLPWTFGQGTKVEIKR
In the case of B4, the “IC50 (read off the curve)” value in the experiment with human properdin [3] was approximately 9 nM.

B5: AB007 (VHH)
VHH: QVQLVESGGGLVQAGGSLRLSCAASGRISSIIHMAWYRQAPGKQRELVAEISRVGTTVYADSVKGRFTISRDDAKNTVTLQMNSLKPEDTAVYYCNALQYEKHGGADYWGQGTQVTVSG
notes: Llama VHH, cloned and expressed with a 6x histidine tag; also called anti-properdin VHH AB007
In the case of B5, in the experiment with human properdin [1], binding was characterised by a dissociation constant (Kd) of 0.344 nM, the koff is 0.000359 s⁻¹ and the kon stood at 1.04e+06 M⁻¹ s⁻¹.

B6: TPP-2951 (Humanized anti-Albumin LVP058 (G4S)3 Linker (7-backmutations)) (bispecific antibody)
chain: EVQLVESGGGLVKPGGSLRLSCAASGRPVSNYAAAWFRQAPGKEREFVSAINWQKTATYADSVKGRFTISRDNAKNSLYLQMNSLRAEDTAVYYCAAVFRVVAPKTQYDYDYWGQGTLVTVSSGGGGSGGGGSGGGGSEVQLLESGGGLVQPGGSLRLSCAASGRISSIIHMAWFRQAPGKERELVSEISRVGTTVYADSVKGRFTISRDNSKNTLYLQMNSLKPEDTAVYYCNALQYEKHGGADYWGQGTLVTVSS
notes: Single chain: anti-albumin VHH, (G4S)3 linker, humanized LVP058 with 7 back mutations
Turning to B6, the equilibrium dissociation constant (Kd) in the experiment with human properdin [4] was 0.322 nM; with cynomolgus properdin [5] it was 2.33 nM; with human properdin [7], 0.301 nM; in the experiment with cynomolgus properdin [8], 2.33 nM; with human properdin [9], 0.301 nM. Moreover, the dissociation rate constant (koff) in the experiment with human properdin [4] was found to be 0.000574 s⁻¹; with cynomolgus properdin [5] it was 0.00426 s⁻¹; in the experiment with human properdin [9], 0.000567 s⁻¹. The kon with human properdin [4] was 1.78e+06 M⁻¹ s⁻¹; with cynomolgus properdin [5], 1.82e+06 M⁻¹ s⁻¹; with human properdin [9] it was 1.88e+06 M⁻¹ s⁻¹. Also, in the experiment with human properdin [6], the “IC50 (read off the curve)” value was approximately 30 nM.

B7: TPP-3261 (Humanized anti-Albumin LVP058 (G4S)3 Linker (3-backmutations)) (bispecific antibody)
chain: EVQLVESGGGLVKPGGSLRLSCAASGRPVSNYAAAWFRQAPGKEREFVSAINWQKTATYADSVKGRFTISRDNAKNSLYLQMNSLRAEDTAVYYCAAVFRVVAPKTQYDYDYWGQGTLVTVSSGGGGSGGGGSGGGGSEVQLVESGGGLVQPGGSLRLSCAASGRISSIIHMAWVRQAPGKQRELVSEISRVGTTVYADSVKGRFTISRDNSKNTLYLQMNSLRAEDTAVYYCNALQYEKHGGADYWGQGTLVTVSS
notes: Single chain: anti-albumin VHH, (G4S)3 linker, humanized LVP058 with 3 back mutations
As for B7, the Kd with human properdin [4] came out at 0.485 nM; in the experiment with cynomolgus properdin [5] it was 3.08 nM; with human properdin [7], 0.485 nM; in the experiment with cynomolgus properdin [8], 3.08 nM. Also, the figures for the koff with human properdin [4] and in the experiment with cynomolgus properdin [5] were 0.000834 s⁻¹ and 0.00587 s⁻¹, respectively. The kon with human properdin [4] came to 1.72e+06 M⁻¹ s⁻¹; with cynomolgus properdin [5] it was 1.91e+06 M⁻¹ s⁻¹.

B8: TPP-3071 (anti-Albumin LVP058 (G4D)2 (G4) Linker) (bispecific antibody)
chain: EVQLVESGGGLVKPGGSLRLSCAASGRPVSNYAAAWFRQAPGKEREFVSAINWQKTATYADSVKGRFTISRDNAKNSLYLQMNSLRAEDTAVYYCAAVFRVVAPKTQYDYDYWGQGTLVTVSSGGGGDGGGGDGGGGEVQLVESGGGLVQAGGSLRLSCAASGRISSIIHMAWYRQAPGKQRELVAEISRVGTTVYADSVKGRFTISRDDAKNTVTLQMNSLKPEDTAVYYCNALQYEKHGGADYWGQGTQVTVSS
notes: Single chain: anti-albumin VHH, (G4D)2 G4 linker, non-humanized LVP058
For B8, the binding result with human properdin [10] is “binds”.

B9: TPP-3072 (anti-Albumin LVP058 (G4E)2 (G4) Linker) (bispecific antibody)
chain: EVQLVESGGGLVKPGGSLRLSCAASGRPVSNYAAAWFRQAPGKEREFVSAINWQKTATYADSVKGRFTISRDNAKNSLYLQMNSLRAEDTAVYYCAAVFRVVAPKTQYDYDYWGQGTLVTVSSGGGGEGGGGEGGGGEVQLVESGGGLVQAGGSLRLSCAASGRISSIIHMAWYRQAPGKQRELVAEISRVGTTVYADSVKGRFTISRDDAKNTVTLQMNSLKPEDTAVYYCNALQYEKHGGADYWGQGTQVTVSS
On to B9, for which, in the experiment with human properdin [6], the “IC50 (read off the curve)” value was approximately 20 nM.

B10: TPP-2225 (anti-Albumin LVP058 (G4S)3 Linker) (bispecific antibody)
chain: EVQLVESGGGLVKPGGSLRLSCAASGRPVSNYAAAWFRQAPGKEREFVSAINWQKTATYADSVKGRFTISRDNAKNSLYLQMNSLRAEDTAVYYCAAVFRVVAPKTQYDYDYWGQGTLVTVSSGGGGSGGGGSGGGGSLEVQLVESGGGLVQAGGSLRLSCAASGRISSIIHMAWYRQAPGKQRELVAEISRVGTTVYADSVKGRFTISRDDAKNTVTLQMNSLKPEDTAVYYCNALQYEKHGGADYWGQGTQVTVSS
notes: Single chain: anti-albumin VHH, (G4S)3 linker, non-humanized anti-properdin VHH LVP058; also called anti-Alb-LVP058
B10: the “IC50 (read off the curve)” value in the experiment with human properdin [3] was approximately 10 nM. Further, the equilibrium dissociation constant (Kd) with Human Albumin [11] turned out to be 0.774 nM; with Cynomolgus Albumin [12], 7.07 nM; with human properdin [7], 0.172 nM; in the experiment with cynomolgus properdin [8], 1.98 nM; with human properdin [9] it was 0.172 nM; with Human Albumin [13], 0.646 nM. For the same molecule, the Kd amounted to 2.3 nM in the experiment with Cynomolgus Albumin [14] and 2.57 nM in the experiment with human properdin [15]. This molecule also came in with a koff with human properdin [9] of 0.000349 s⁻¹. In the experiment with human properdin [9], this molecule yielded an on-rate constant (kon) of 2.03e+06 M⁻¹ s⁻¹.

B11: TPP-2221 (LVP058_hG2-G4, VHH on silent human Fc) (Fc fusion)
chain: LEVQLVESGGGLVQAGGSLRLSCAASGRISSIIHMAWYRQAPGKQRELVAEISRVGTTVYADSVKGRFTISRDDAKNTVTLQMNSLKPEDTAVYYCNALQYEKHGGADYWGQGTQVTVSSRKCCVECPPCPAPPVAGPSVFLFPPKPKDTLMISRTPEVTCVVVDVSQEDPEVQFNWYVDGVEVHNAKTKPREEQFNSTYRVVSVLTVLHQDWLNGKEYKCKVSNKGLPSSIEKTISKAKGQPREPQVYTLPPSQEEMTKNQVSLTCLVKGFYPSDIAVEWESNGQPENNYKTTPPVLDSDGSFFLYSRLTVDKSRWQEGNVFSCSVMHEALHNHYTQKSLSLSLGK
In the case of B11, in the experiment with human properdin [3], the “IC50 (read off the curve)” value is approximately 10 nM.

B12: TPP-2224 (LVP058 (G4S)3-anti-Alb-tandem VHH) (bispecific antibody)
chain: LEVQLVESGGGLVQAGGSLRLSCAASGRISSIIHMAWYRQAPGKQRELVAEISRVGTTVYADSVKGRFTISRDDAKNTVTLQMNSLKPEDTAVYYCNALQYEKHGGADYWGQGTQVTVSSGGGGSGGGGSGGGGSEVQLVESGGGLVKPGGSLRLSCAASGRPVSNYAAAWFRQAPGKEREFVSAINWQKTATYADSVKGRFTISRDNAKNSLYLQMNSLRAEDTAVYYCAAVFRVVAPKTQYDYDYWGQGTLVTVSS
For B12, the “IC50 (read off the curve)” value with human properdin [3] was approximately 20 nM.

The term Kd denotes a measure of binding affinity in units of concentration. Low values mean tighter binding, high ones weaker binding. As a reminder, the koff is the rate constant with which the complex falls apart. One may read the kon as a measure of how fast the partners come together. A low value points to slower complex formation.

Source of the values: patent US20190352381A1 (Alexion, published 2019).
